Data as given in patent publication US20160137740A1.

Biological target: KO_CRD4+linker (human OX40 aa 147 to 214 replaced with the mouse counterparts) (human; mouse)
Assay: flow cytometry, transfected 293F cells, column KO_CRD4+linker

Chain of KO_CRD4+linker (human OX40 aa 147 to 214 replaced with the mouse counterparts) (human; mouse) (chain, as listed by the source limits assumed, form in doubt): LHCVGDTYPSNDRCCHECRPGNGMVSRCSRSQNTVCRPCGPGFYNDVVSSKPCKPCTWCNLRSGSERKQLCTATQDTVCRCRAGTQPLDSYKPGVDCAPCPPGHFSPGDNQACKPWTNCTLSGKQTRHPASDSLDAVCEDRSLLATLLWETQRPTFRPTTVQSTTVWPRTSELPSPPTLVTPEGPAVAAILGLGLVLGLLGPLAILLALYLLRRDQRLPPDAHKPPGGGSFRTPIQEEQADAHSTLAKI

percent of cells in the Alexa Fluor 488 gate (number printed over the gate): 52.7
B1: 9B12 (antibody, mouse IgG1, V domains shown)
VH: EVQLQESGPSLVKPSQTLSLTCSVTGDSFTSGYWNWIRKFPGNRLEYMGYISYNGITYHNPSLKSRISITRDTSKNHYYLQLNSVTTEDTATYFCARYRYDYDGGHAMDYWGQGTLVTVSS
VL: DIQMTQTTSSLSASLGDRVTISCRASQDISNYLNWYQQKPDGTVKLLIYYTSKLHSGVPSRFSGSGSRTDYSLTITDLDQEDIATYFCQQGSALPWTFGQGTKVEIKR
